Results taken from PMC4452151 (Cancer Science, 2015).

Assays:
CD3 on T cells = CD3 on T cells (Homo sapiens (endogenous, Jurkat cells …, UniProt P07766)); experiment: flow cytometry on cells
[1] = biological target: recombinant human CD138 protein (Homo sapiens (Human)., UniProt P18827, biotin (in the bio-layer interferometry experiment only)); experiment: BLI
Chain of recombinant human CD138 protein (P18827 23-254): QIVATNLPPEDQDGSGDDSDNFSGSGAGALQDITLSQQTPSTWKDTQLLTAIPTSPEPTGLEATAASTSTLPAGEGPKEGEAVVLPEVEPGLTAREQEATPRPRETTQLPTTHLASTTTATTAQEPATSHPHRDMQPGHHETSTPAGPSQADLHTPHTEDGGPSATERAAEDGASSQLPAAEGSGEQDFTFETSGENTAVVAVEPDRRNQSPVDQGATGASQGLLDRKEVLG

Chain of CD3 on T cells (Homo sapiens (P07766 23-207): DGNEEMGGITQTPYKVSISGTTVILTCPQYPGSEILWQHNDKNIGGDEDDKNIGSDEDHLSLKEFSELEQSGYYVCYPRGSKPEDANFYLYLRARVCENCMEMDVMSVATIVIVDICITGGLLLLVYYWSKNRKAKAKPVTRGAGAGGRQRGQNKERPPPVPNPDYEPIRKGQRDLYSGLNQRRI

binding result (CD3 on T cells): no binding (tested: 10 μg/mL)
Kd [1]: 13.5 nM
B1: aCD138-ScFv-hIgFc (scFv, V domains shown)
VH: QVQLQQSGSELMMPGASVKISCKATGYTFSNYWIEWVKQRPGHGLEWIGEILPGTGRTIYNEKFKGKATFTADISSNTVQMQLSSLTSEDSAVYYCARRDYYGNFYYAMDYWGQGTSVTVSS
VL: DIQMTQSTSSLSASLGDRVTISCSASQGINNYLNWYQQKPDGTVELLIYYTSTLQSGVPSRFSGSGSGTDYSLTISNLEPEDIGTYYCQQYSKLPRTFGGGTKLEIK
